Test results as given in patent publication US20250243282A1 (TRUEBINDING, published 2025).
Substitutions are numbered along the chain they refer to. Names may count otherwise.

B1: 849.1D2 (antibody, V domains shown)
VH: QVQLKESGPVLVAPSQSLSITCTVSGFSLSSYGVHWVRQPPGKGLEWLGVIWAGGSTDYDSALMSRLSISKDNSKSQVFLKMDSLQTDDTAMYYCAKPPYDYDGAWFAYWGQGTLVTVSA
VL: DVVMTQTPKFLLVSAGDRVTITCKASQSVSSDVAWYQQKPGQSPKLLIYFASNRYTGVPDRFTGSGYGTDFTFTISTVQAEDLAVYFCQHNYISPFTFGGGTKLEIK
B2: 847.11D6 (antibody, V domains shown)
VH: EVKLQQSGPELMKPGTSMKISCKASGYSFTGYTMNWVKQSHGKNLEWIGLINPYNGGTNYNQKFRGKATLSVDKSSNTAYMELLSLTSEDSAVYYCARKDDYYGSSPYALDYWGQGTSVTVSS
VL: DIVMTQSPASLAVSLGQRATISCRASESVENHVNSFMHWFQQKPGQPPKLLIYRASNLQSGIPARFSGSGSRTDFTLTINPVEADDVATYYCQQNNEVPYTFGGGTKLEIK
B3: 847.15H11 (antibody, V domains shown)
VH: EVQLQQSGAEVVKPGAPVKLSCKASGYTFNNYWLNWVKQRPGRGLEWIGRIDPSDSETHYNQKFKDKATLTVDMSSSTAYIQLSSLTSEDSAVYYCARGDYYYGTRGPMDYWGQGTSVTVSS
VL: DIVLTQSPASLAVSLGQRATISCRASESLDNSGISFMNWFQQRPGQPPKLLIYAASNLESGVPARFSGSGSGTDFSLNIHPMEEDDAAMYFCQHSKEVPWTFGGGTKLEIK
B4: 847.20H7 (antibody, V domains shown)
VH: QVQLQQSGAELVRPGASVNLSCKASGYTFTNYWMNWVKQRPGQGLEWVGMIDPSDSETHYNQMFKDKATLTIDKSSSIAYMQLSSLTSEDSAVYYCARWGAMDYWGQGTSVTVSS
VL: DIVMTQSHKIMSTSVGDRVSITCKASQDVSTTVAWFQQKPGQSPKLLLYWASTRHTGVPDRFTGSGSGTDYTLTISSVQAEDLALYYCQQHYSPPFTFGSGTKLEIK
B5: 847.28D1 (antibody, V domains shown)
VH: QVQLVETGPGLVAPSQSLSITCTVSGFSLTSYGVHWIRQSPGKGLEWLGTIWAGGSTDYNSPLMSRLSISKDNSKNQVFLKMNSLQIDDTAIYYCASPPSGYDYDVFASWGQGTLVTVSA
VL: DIRMTQSPASLSASVGETVTITCRASGNIHNYLAWYHQKQGKSPQLLVYNVKTLADGVPSRFSGSGSGTQFSLKINSLQPEDFGTYYCQHFWSIFPTFGGGTKLEIK
B6: 847.3B3 (antibody, V domains shown)
VH: B5 VH with V5K, T7S, S40P, T50G, S70T, N76S, I87S, I92M, S109Y
VL: B5 VL with R3L, H37Q, N50S, V51A, N76D, I94L
B7: F846C.1F5 (antibody, human IgG4 S228P, kappa, V domains shown)
VH: QIQLVQSGPELKKPGETVKISCKASGYTFTNYGMNWVKQAPGKGLKWMGWINTYTGEPSYADDFKGRFAFSLETSASTAYLQINNLKNEDMATYFCARWGGYDGDYYAMDYWGQGTSVTVSS
VL: NIMMTQSPSSLAVSAGEKVTMSCKSSQSVLYSSNQKNYLAWYQQKPGQSPKLLIYWASTRESGVPDRFTGSGSGTDFTLTISSVQPEDLAVYYCHQYLSSLTFGAGTKLELKR
B8: F846C.2H3 (antibody, human IgG4 S228P, kappa, V domains shown)
VH: B7 VH
VL: B7 VL
B9: F846TC.16B5 (antibody, human IgG4 S228P, kappa, V domains shown)
VH: B7 VH with S59A
VL: B7 VL with P86A
B10: F846C.1H12 (antibody, human IgG4 S228P, kappa, V domains shown)
VH: B7 VH with Y32F, M91I, D103A
VL: B7 VL with E17Q, N34S, T69S
B11: F846C.1B2 (antibody, human IgG4 S228P, kappa, V domains shown)
VH: B7 VH with D103A, Y111F
VL: B7 VL with M3W, M4L, K18M, S22T, T78S, P86A
B12: 13G4.2F8 (antibody, human IgG4 S228P, kappa, V domains shown)
VH: QVQLQQPGAELVKPGASVKLSCKASGYTFTSYWMHWVKQRPGQGLEWIGMIHPNSGSTDYNEKFKNKATLNVDKSSSTAYIQLSSLTSEDSAVYYCTRWGIYYYARDYWGQGTTLTVSS
VL: DIVMTQSQKFMSTSVGERVSITCKASQNVGTNVAWYQQKAGQSLELLIYGASNRHTGVPDRFTGSGSGTDFTLTITNVQSEDMTNYFCEQYSNFPLTFGAGTKLELKR
B13: 847.27B9 (antibody, V domains shown)
VH: QIQLVQSGPELKKPGETVKISCKASGYTFTNYGMNWVKQAPGKGLKWMGWINTNTGEPTYAEEFKGRFAFSLETSASTAYLQINYLKNEDTATFFCARLDYDYDEDYWGQGTTLTVSS
VL: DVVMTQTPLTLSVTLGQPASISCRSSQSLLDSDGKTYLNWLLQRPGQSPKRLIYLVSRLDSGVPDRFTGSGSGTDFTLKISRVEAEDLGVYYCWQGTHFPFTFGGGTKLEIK
B14: 847.12C4 (antibody, V domains shown)
VH: QVQLKESGPDLVQPSQTLSLTCTVSGFSLTIYGVHWVRQPPGKGLEWVGTVAWDDKKYYNSPLQSRLSISRDTSKNQVFLKLSSLQTEDTAMYYCTMTGGPINYWGPGTSVTVSS
VL: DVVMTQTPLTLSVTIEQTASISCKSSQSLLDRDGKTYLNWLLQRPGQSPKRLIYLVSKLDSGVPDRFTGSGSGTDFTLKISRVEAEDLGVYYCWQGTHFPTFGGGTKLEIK
B15: 9H2.2H10 (antibody, human IgG4 S228P, kappa, V domains shown)
VH: QVQLQQPGAELVGPGSSVKLSCKASGYTFTNYWIHWVKQRPLQGLEWIGNIDPSDSETHYNQKFKDKATLTVDKSSSTAYMQLSSLTSEDSAVYYCARHGYYDYWGQGTTLTVSS
VL: DIVMTQSHKFMSTSVGDRVSITCKASQDVSTAVAWYQQKPGQSPKLLIYWASTRHTGVPDRFTGSGSGTDYTLTISSVQAEDLALYYCQQHYTTPLTFGAGTKLELKR
B16: 847.15D12 (antibody, V domains shown)
VH: QVQLQQSGAELMKPGASVKISCKATGYTFTNYWIEWVKQRPGHGLEWIGEFLPGDGSSHYNEKFKGKATFTSDTSSNTAYIHLTSLTSEDSAVYYCVRDDYDSDYWAQGTTLTVSS
VL: QAVVTQESALTTSPGETVTLTCRSSTGAVTTSNYANWVQEKPDHLFTGLIGGTNNRAPGVPARFSGSLIGDKAALTITGAQTEDEAIYFCALWYSNHLVFGGGTKLTVL
B17: 847.10C9 (antibody, V domains shown)
VH: EVQLQQSGAELVRPGTSVKVSCKASEYAFNNYMMEWVKQRPGQGLEWIGVINPGSGATNYNENFKDKATLTADKSSTTAYMQLSSLTSDDSAVYFCTYNDLGYWGQGTLVTVSA
VL: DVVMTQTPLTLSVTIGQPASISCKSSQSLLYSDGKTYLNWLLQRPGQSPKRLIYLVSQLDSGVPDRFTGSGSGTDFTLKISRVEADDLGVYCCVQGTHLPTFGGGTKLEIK

These binders were tested against T1, Recombinant human Gal3 (rhGal3) (TrueBinding, #QC200361) (human, UniProt P17931 2-250) (assay: cell-based or functional assay).
Further: test concentration or dose not given here.

In order of falling “% inhibition of CD62L shedding” value:
1. B14  150%
2. B17  150%
3. B1  130%
4. B5  110%
5. B10  100%
6. B11  99%
7. B12  94.3%
8. B8  93.6%
9. B13  87.9%
10. B9  84.2%
11. B2  83.2%
12. B7  76.3%
13. B15  67.7%
14. B4  63.4%
15. B6  43.4%
16. B3  39.3%
17. B16  15.4%

Target: T1, Recombinant human Gal3 (rhGal3) …
Assay: cell-based or functional assay
Remark: another data set of the same source

Compared with B1, B2 is lower in “% inhibition of IL-6 secretion” value: 26.8% for the first, 22.7% for the second.

First: B3
Second: B4
The “% inhibition of IL-6 secretion” value of the first is higher: 94.7% for the first, -155% for the second.

Going from B5 to B6, the “% inhibition of IL-6 secretion” value falls from 78.6% to 72.3%.

Compared with B7, B8 is lower in “% inhibition of IL-6 secretion” value: -16% for the first, -49.1% for the second.

Going from B9 to B10, the “% inhibition of IL-6 secretion” value rises from -204% to 51.8%.

First: B11
Second: B12
The “% inhibition of IL-6 secretion” value of the first is lower: -9% for the first, 55.1% for the second.

Going from B13 to B14, the “% inhibition of IL-6 secretion” value rises from -84.7% to -0.7%.

Going from B15 to B16, the “% inhibition of IL-6 secretion” value rises from -99.1% to -71.9%.

B17 was tested, and the “% inhibition of IL-6 secretion” value was over -1000%.

In order of rising “% inhibition of TNFα secretion” value:
1. B17  -246%
2. B4  -185%
3. B16  -153%
4. B15  -39.2%
5. B9  -11.4%
6. B14  -5.4%
7. B2  -3.1%
8. B1  37%
9. B11  43.9%
10. B7  51.7%
11. B8  62.8%
12. B13  70.1%
13. B5  80.5%
14. B12  83.2%
15. B6  94.3%
16. B10  95.3%
17. B3  100%
